We go through one substance from US20110230416A1.

The target in experiment [1] is hLDLR of non-genetically modified human cells (human fibroblasts, HUVEC) (human) (UniProt P01130). Briefly: FACS on HUVEC, competition; displaced: bacterial viruses expressing SEQ ID NO: 11.
Experiment [2] shares this target. Briefly: FACS on HUVEC, competition; displaced: bacterial viruses expressing SEQ ID NO: 21.

Sequence of hLDLR of non-genetically modified human cells (human fibroblasts, HUVEC) (human) (P01130 22-860): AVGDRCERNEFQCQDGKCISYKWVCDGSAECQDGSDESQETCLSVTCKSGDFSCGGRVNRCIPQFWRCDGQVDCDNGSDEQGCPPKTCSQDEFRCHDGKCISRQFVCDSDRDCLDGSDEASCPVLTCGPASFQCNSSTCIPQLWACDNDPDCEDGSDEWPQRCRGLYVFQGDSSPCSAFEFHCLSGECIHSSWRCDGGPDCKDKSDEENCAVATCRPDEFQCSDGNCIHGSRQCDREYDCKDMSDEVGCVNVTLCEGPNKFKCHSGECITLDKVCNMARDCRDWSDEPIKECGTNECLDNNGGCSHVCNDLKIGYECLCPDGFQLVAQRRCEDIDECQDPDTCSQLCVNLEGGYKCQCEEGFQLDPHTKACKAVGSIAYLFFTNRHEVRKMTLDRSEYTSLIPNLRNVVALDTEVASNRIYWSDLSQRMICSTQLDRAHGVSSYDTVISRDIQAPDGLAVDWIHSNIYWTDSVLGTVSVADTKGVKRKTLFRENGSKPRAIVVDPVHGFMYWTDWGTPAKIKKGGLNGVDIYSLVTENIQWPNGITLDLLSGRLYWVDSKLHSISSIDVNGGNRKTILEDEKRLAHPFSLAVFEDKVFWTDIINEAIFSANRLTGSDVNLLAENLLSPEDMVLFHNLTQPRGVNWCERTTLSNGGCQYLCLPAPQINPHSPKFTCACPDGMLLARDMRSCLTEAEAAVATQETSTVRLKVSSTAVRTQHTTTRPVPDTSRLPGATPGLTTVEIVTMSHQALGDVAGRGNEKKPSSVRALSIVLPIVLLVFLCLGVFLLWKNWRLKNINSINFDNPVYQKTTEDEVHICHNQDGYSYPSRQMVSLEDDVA

In the case of LDL, natural ligand of hLDLR, the values for the loss of signal in Q2 on adding LDL in experiment [1] and in experiment [2] were 17% and 85%, respectively.
